The target in test [1] is T1, human alpha-2-antiplasmin (human, UniProt P08697, 125I label in the radioimmunoassays of Example 1; biotin in the competition assay of Example 5; unlabelled in the ELISA, plasmin and clot lysis assays).
T1 sequence: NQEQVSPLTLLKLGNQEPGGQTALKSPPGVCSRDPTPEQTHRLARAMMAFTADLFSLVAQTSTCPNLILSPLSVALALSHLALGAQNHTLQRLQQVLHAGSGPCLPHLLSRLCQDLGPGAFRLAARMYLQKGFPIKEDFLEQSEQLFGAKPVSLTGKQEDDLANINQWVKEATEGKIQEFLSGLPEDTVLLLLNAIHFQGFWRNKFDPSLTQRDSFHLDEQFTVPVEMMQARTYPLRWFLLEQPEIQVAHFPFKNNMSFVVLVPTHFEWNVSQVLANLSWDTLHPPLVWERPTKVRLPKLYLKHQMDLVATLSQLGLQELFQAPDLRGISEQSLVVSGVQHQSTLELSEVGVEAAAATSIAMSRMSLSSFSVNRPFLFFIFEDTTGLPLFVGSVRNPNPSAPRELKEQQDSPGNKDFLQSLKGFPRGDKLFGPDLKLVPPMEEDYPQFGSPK
Briefly: ELISA: plates coated with α2-antiplasmin (American Diagnostica), anti-human kappa conjugate.

Test [2] has as its target T1, human alpha-2-antiplasmin.

This is an account of results in patent US6114506, “Composition and method for enhancing fibrinolysis” (General Hospital Corporation, dated 2000).

B1: h77A3-1 (humanized 77A3) (antibody, V domains shown)
VH: QIQLVQSGSELKKPGASVKISCKASGYTFTNYGMNWVRQAPGQGLEWMGWINTKSGEPTYAEEFKGRFVFSLDTSVTTAYLQISSLKAEDTAVYFCARWVPGTYAMDYWGQGTTVTVSS
VL: DIQMTQSPSSLSASVGDRVTITCRASGNIHNYLAWYQQKQGKSPQLLVYNAKTLASGVPSRFSGSGSGTDFTLTISSLQPEDFGSHYCQHFWTTPWTFGGGTKLEIK
Take B1: in test [1], the binding result was “binds”.

B2: h77A3-2 (humanized 77A3) (antibody, V domains shown)
VH: QIQLVQSGAEVKKPGASVKISCKASGYTFTNYGMNWVRQAPGQGLEWMGWINTKSGEPTYAEEFKGRFTFTLDTSTSTAYLEIRSLRSDDTAVYFCARW
VL: DIQMTQSPSSLSASVGDRVTITCRASGNIHNYLAWYQQKQGKSPQLLVYNAKTLASGVPSRFSGSGSGTDFTLTISSLQPEDFGSHY
In test [2], B2 yielded a plasmin assay with chromogenic substrate: loss in activity of 20 to 30%.
